Source: US20240409663A1 (CONCEPT TO MEDICINE BIOTECH, published 2024)

Legend:
[1] = target: T1, human GPC3 on cells (human, UniProt P51654 25-554); assay: FACS, Huh-7 cells
T1 construct: whole, on cells; over-expressed on CHOK1 cells or endogenous on HEPG2, Hep3B and Huh-7 hepatocellular carcinoma cells; the cell line is named under assay; also called GPC3-CHOK1 cells; human GPC3 over-expressed CHOK1 cells
Protocol: Cell-based binding: FACS was used to evaluate the binding activity of 52H5D3B8 chimeric mAbs with comparison to a known GPC3 antibody GC33 (Chugai Pharmaceutical) on human GPC3 over-expressed CHOK1 cells, HEPG2 cells, Hep3B cells and Huh-7 cells.
(§1) Briefly, GPC3-CHOK1 cells, HEPG2 cells, Hep3B cells or Huh-7 cells were firstly incubated with Fc blocking reagent at 4° C. for 15 mins. Cells were washed by FACS buffer and divided to each well with 3-fold serially diluted 52H5D3B8 chimeric mAbs or GC33 mAb starting at 30 μg/mL at 4° C. for 60 mins. Cells were washed by FACS buffer and fixed with 2% PFA at RT for 15 mins. […] Samples were washed twice with FACS buffer.

[2] = target: T1, human GPC3 on cells; assay: FACS, Huh-7 cells; remark: listed apart in the source
Protocol: Cell-based binding: FACS was used to evaluate the binding activity of 52H5D3B8, 52H5D3B8-6 # chimeric mAbs and GC33 antibody on human GPC3 over-expressed CHOK1 cells, Hep3B cells and Huh-7 cells.
as §1, with “GPC3-CHOK1” for “GPC3-CHOK1 cells, HEPG2”, “diluted 52H5D3B8, 52H5D3B8-6 #” for “diluted 52H5D3B8”, “GC33 antibody” for “GC33 mAb”

[3] = target: T1, human GPC3 on cells; assay: FACS, Huh-7 cells; remark: listed apart in the source
Method in brief: (§2)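 Cells Fc-blocked 15 mins at 4° C, then incubated 60 mins at 4° C with antibodies in 4-fold serial dilutions from 10 μg/mL. Washed and fixed in 2% PFA before FACS read-out; antibodies split over two plates.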

[4] = target: T1, human GPC3 on cells; assay: FACS, GPC3-CHOK1 cells
Protocol: Cell-based binding: FACS was used to evaluate the binding activity of chimeric mAbs (18C1D9, 52H5D3B8, 163E7D12, 172B4E9, 152E9F7 and 171F9C5) with comparison to a known GPC3 antibody GC33 (Chugai Pharmaceutical) on human GPC3 over-expressed CHOK1 cells.
Briefly, GPC3-CHOK1 cells were washed by FACS buffer and divided to each well with 3-fold serially diluted chimeric mAbs or GC33 mAb starting at 5 μg/mL at 4° C. for 40 mins. […] Samples were washed twice with FACS buffer.

[5] = target: T1, human GPC3 on cells; assay: FACS, GPC3-CHOK1 cells; remark: listed apart in the source
Method in brief: as §2

[6] = target: T2, mouse GPC3 protein (mouse, UniProt Q8CFZ4 25-558, limits assumed); assay: ELISA, coated mouse GPC3
T2 construct: protein coated on plates in the cross species ELISA
T2 sequence (Q8CFZ4 25-558 limits assumed): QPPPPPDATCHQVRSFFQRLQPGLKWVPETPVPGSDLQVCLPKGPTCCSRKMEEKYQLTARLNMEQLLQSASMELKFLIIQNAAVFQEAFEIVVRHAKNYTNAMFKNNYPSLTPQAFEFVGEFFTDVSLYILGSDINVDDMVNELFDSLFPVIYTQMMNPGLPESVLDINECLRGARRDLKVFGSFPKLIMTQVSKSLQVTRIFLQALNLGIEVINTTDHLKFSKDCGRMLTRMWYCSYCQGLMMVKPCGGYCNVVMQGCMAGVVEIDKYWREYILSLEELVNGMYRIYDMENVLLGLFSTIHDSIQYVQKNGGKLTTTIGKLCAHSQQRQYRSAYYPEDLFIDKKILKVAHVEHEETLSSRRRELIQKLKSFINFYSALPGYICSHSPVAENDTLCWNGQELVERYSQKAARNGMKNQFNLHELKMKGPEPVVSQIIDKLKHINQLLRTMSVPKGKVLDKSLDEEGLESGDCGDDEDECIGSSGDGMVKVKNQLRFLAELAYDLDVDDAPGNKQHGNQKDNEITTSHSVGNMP
Protocol: (§3) ELISA testing was carried out to evaluate the binding of chimeric antibodies to human, mouse and cynomolgus GPC3, respectively.
(§4) Briefly, microtiter plates were coated with human, mouse and cynomolgus GPC3 proteins at 1 μg/ml in PBS, 100 μl/well at 4° C. overnight, then blocked with 150 μl/well of 1% BSA. Three-fold dilutions of chimeric antibodies starting from 9 μg/ml were added to each well and incubated for 1 hour at 37° C. The plates were washed with PBS/Tween and then incubate with mouse-anti-human IgG Fc antibody conjugated with Horse Radish Peroxidase (HRP) for 30 mins at 37° C. After washing, the plates were developed with TMB substrate and analyzed by spectrophotometer at OD 450 nm. The 52H5D3B8 antibody bound to human, cynomolgus GPC3 and mouse GPC3 (FIG. 3 and Table 4).

[7] = target: T3, cynomolgus GPC3 protein (cynomolgus, UniProt A0A2K5VK50 24-553, The natural protein carries heparan sulfate chains and may be cleaved by furin between the alpha (24-357) and beta (358-553) subunits, which stay disulfide-linked. It is written here as one …); assay: ELISA, coated cynomolgus GPC3
T3 construct: protein coated on plates in the cross species ELISA
Protocol: as §3, §4

EC50 [1]: 0.0986 µg/mL | EC50 [2]: 0.0795 µg/mL | EC50 [3]: 0.0469 µg/mL | EC50 [4]: 0.0909 µg/mL | EC50 [5]: 0.0477 µg/mL | EC50 [6]: 4.95 µg/mL | EC50 [7]: 0.0152 µg/mL
B1: 52H5D3B8 chimeric mAb (antibody, V domains shown)
VH: QVQLQQSGAELVRPGASVKLSCKALGYTFTDYEMHWVKQTPVHGLEWIGAIHPGSGGTAYNQKFKGKATLTADKFSSTGYMELSSLTSEDSAVYYCTRFYSYAYWGQGTLVTVSA
VL: DVVMTQTPLSLPVSLGDQASISCRSSQSLVHSNGNTYLQWYLQKPGQSPKLLIYKVSNRFSGVPDRFSGSGSGTDFILKISRVEAEDLGVYFCSQSIHVPYTFGGGTKLEIK
notes: also called 52H5D3B8-VH+VL; chimeric 52H5D3B8 mAb
